Measured values taken from article PMC6451097, “YB-1, an abundant core mRNA-binding protein, has the capacity to form an RNA nucleoprotein filament: a structural analysis”.

Legend:
YB-1 CSD = YB-1 CSD (Homo sapiens, UniProt P67809 52-129); assay: NMR HSQC; 1:1; EMSA: 20 mM Hepes pH 7.5, 40 mM KCl, room temp, 5 min (SSB: 20 mM Tris-HCl pH 7.6, 300 mM KCl, 37 C, 15 min); NMR: 100 uM protein, 1:1 oligo, 298 K (RNA 298 and 303 K), NMR buffer not in material; details: protein: recombinant
YB-1C = YB-1C (Homo sapiens, UniProt P67809 1-180); assay: NMR HSQC; 1:1; monomer; EMSA: 20 mM Hepes pH 7.5, 40 mM KCl, room temp, 5 min (SSB: 20 mM Tris-HCl pH 7.6, 300 mM KCl, 37 C, 15 min); NMR: 100 uM protein, 1:1 oligo, 298 K (RNA 298 and 303 K), NMR buffer not in material; details: protein: recombinant; tags: His-tag (pET22b); untagged version also used
Sequence of YB-1C (P67809 1-180): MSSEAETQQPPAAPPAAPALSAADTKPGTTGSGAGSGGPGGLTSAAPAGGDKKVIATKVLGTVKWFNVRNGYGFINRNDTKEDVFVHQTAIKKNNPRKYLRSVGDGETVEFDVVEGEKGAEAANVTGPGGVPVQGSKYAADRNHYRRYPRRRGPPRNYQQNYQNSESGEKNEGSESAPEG

Sequence of YB-1 CSD (P67809 52-129): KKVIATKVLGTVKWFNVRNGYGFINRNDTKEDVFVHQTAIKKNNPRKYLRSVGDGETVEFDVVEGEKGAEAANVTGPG

B1: dC10 (ssDNA)
DNA: CCCCCCCCCC
binding result (YB-1 CSD): binds | binding result (YB-1C): binds
